According to paper PMC6081406 (Nature Communications, 2018):
Like-named read-outs stand apart in the source and are kept apart here.

Assays:
[1] = target: GABAAR α1 subunit large cytoplasmic loop (AA 334-420) (UniProt P62813)
[2] = target: GABAAR α2 subunit large cytoplasmic loop (AA 335-419) (UniProt P23576)
[3] = target: GABAAR α3 subunit large cytoplasmic loop (AA 392-406) (UniProt P20236)
[4] = target: GABAAR α1 subunit large cytoplasmic loop (AA 334-420) (UniProt P62813); experiment: ITC; CB-SH3 titrated against the receptor loops and truncated constructs
[5] = target: GABAAR α3 subunit large cytoplasmic loop (AA 392-406) (UniProt P20236); experiment: as above
[6] = target: large cytoplasmic loop of the GlyR β subunit (AA 378-425); experiment: as above
[7] = target: T1, GABAAR α2 subunit large cytoplasmic loop (AA 335-419) (UniProt P23576 335-419); experiment: as above; settings: both partners purified
T1 construct: GABAA receptor α2 subunit, large cytoplasmic loop, AA 335-419; also called α2L; GABAAR-α2L

[8] = target: GABAAR-α2 large cytoplasmic loop (AA 335-419); experiment: ITC; CB-SH3 titrated against the GABAAR α-subunit loops and truncated α2 constructs; purified proteins
[9] = target: GABAAR-α2 loop truncation α2-351St (AA 307-350); experiment: as above
[10] = target: GABAAR-α2 loop fragment α2-min3; experiment: as above
[11] = target: GABAAR-α2 loop truncation α2-335St (AA 307-334); experiment: as above
[12] = target: T2, GABAA receptor alpha2 large intracellular loop (Mus musculus, UniProt P26048); experiment: ITC
T2 chain: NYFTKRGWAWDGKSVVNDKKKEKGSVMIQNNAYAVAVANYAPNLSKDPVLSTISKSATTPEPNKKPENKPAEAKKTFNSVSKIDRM

[13] = target: T3, SH3 domain of collybistin (CB-SH3) (mouse (murine), UniProt Q3UTH8 4-72); experiment: ITC; CB-SH3 titrated against the GABAAR α-subunit loops and truncated α2 constructs; purified proteins; settings: both partners purified
T3 construct: collybistin (CB1, ARHGEF9), murine, residues 4-72, encompassing the complete SH3 domain (residues 8-67); said to be identical to the SH3 domain of the human CB isoform hPEM-2; pGEX vector construct provided by T. Soykan (Brose lab); also called collybistin SH3; source: E. coli, purified (GST tag, in-situ thrombin cleavage, Superdex 200 SEC); not shown: GST, N-terminal, cleaved
T3 sequence (looked up): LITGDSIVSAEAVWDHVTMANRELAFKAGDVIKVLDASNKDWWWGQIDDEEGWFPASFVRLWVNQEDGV

## E domain of gephyrin (GephE, AA 318-736) (domain or fragment)
[1]
  Kd: 17 µM
[2]
  Kd: > 500 µM
[3]
  Kd: 5 µM

B1: SH3 domain of collybistin (CB-SH3) (domain or fragment, murine, UniProt Q3UTH8 4-72, looked up)
chain: LITGDSIVSAEAVWDHVTMANRELAFKAGDVIKVLDASNKDWWWGQIDDEEGWFPASFVRLWVNQEDGV
notes: collybistin CB1, murine, residues 4-72, encompassing the complete SH3 domain (residues 8-67); pGEX construct provided by T. Soykan (Brose lab); source: E. coli, purified (GST tag, in-situ thrombin cleavage, Superdex 200 SEC); not shown: GST, N-terminal, cleaved
[4]
  Kd: 500 µM
[5]
  Kd: > 500 µM
[6]
  Kd: > 500 µM
[7]
  Kd: 1300 nM
[8]
  stoichiometry N: 0.62
[9]
  Kd: 7 µM

B2: SH3 domain of collybistin (CB-SH3), Q3UTH8 4-72 (domain or fragment)
chain: LITGDSIVSAEAVWDHVTMANRELAFKAGDVIKVLDASNKDWWWGQIDDEEGWFPASFVRLWVNQEDGV
[10]
  Kd: > 500 µM
[11]
  Kd: > 500 µM

B3: Collybistin SH3 (protein)
chain: ITGDSIVSAEAVWDHVTMANRGVAFKAGDVIKVLDASNKDWWWGQIDDEEGWFPASFVRLWVNQED
[12]
  Kd: 1000 nM

B4: GABAAR-α2 loop fragment α2-min1 (peptide)
chain: QNNAYAVAVANYAPN
notes: GABA-A receptor subunit alpha-2, stretch of the large cytoplasmic loop
[13]
  Kd: > 500 µM

B5: GABAAR-α2 loop fragment α2-min2 (peptide)
chain: KGSVMIQNNAYAVAVANYAPNL
notes: as for B4
[13]
  Kd: > 500 µM
